Laboratory results reported in patent US20240400677A1 (ELECTRA THERAPEUTICS, published 2024).
One block for each binder: values may come before it.

Assays:
[1] = target: T1, extracellular binding domain of human SIRPγ (plate-coated) (human, UniProt Q9P1W8 29-360); test: ELISA, coated SIRP ECD (2 µg/mL), anti-human IgG, luminescence
T1 construct: also called hSIRPγ
Method in brief: (§1)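 Plate-coated SIRP extracellular domain (2 μg/mL), blocked, then exposed to purified antibodies in titration, after transient expression in Expi293F cells for 5 days and Protein A purification. Bound antibody is detected with anti-human IgG and a chemiluminescent substrate, and reported as relative luminescence units.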

[2] = target: T2, Human SIRPαV2 (plate-coated extracellular domain) (Homo sapiens, UniProt P78324); test: as above
T2 construct: extracellular domain
T2 sequence (P78324 other isoform, or with tags, fused parts or gaps limits assumed): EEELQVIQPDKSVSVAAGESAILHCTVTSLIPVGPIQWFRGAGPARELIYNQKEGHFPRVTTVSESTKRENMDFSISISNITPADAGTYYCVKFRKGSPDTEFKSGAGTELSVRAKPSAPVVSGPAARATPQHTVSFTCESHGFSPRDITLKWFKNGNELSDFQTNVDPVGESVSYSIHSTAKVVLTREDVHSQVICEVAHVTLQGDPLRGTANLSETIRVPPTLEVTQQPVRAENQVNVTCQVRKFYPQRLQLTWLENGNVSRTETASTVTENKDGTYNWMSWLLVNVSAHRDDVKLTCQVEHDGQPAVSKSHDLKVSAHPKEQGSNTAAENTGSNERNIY
Method in brief: as §1

[3] = target: T3, cynomolgus monkey SIRPγ on CHO cells (cynomolgus monkey, UniProt Q9P1W8 29-386 (human entry)); test: flow cytometry, CHO transfectants, anti-human IgG
T3 construct: also called Cyno SIRPγ CHO
T3 chain: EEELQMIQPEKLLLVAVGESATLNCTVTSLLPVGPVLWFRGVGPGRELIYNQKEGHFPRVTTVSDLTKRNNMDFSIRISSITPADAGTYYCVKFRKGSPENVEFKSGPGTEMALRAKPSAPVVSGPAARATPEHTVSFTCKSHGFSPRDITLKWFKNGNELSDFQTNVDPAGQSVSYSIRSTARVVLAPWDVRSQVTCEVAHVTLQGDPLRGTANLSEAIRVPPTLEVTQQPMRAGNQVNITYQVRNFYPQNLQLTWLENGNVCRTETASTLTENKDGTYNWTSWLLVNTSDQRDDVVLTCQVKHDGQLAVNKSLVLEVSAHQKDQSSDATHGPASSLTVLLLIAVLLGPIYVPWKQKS
Method in brief: (§2)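 Stably transfected CHO cells were incubated with titrated antibodies, and binding was detected with a fluorescent anti-human IgG secondary. Median fluorescence intensity was recorded at each concentration. For the myc-scFv format, crude periplasmic extract was incubated with the SIRP-expressing lines and parental CHO-K1, and fold change <2.0 was scored as non-binder.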

[4] = target: T4, cynomolgus monkey SIRPα on CHO cells (cynomolgus monkey, UniProt A0A2K5VYQ9 31-507); test: flow cytometry, CHO transfectants, anti-human IgG
T4 construct: whole, on cells; also called Cyno SIRPα CHO
T4 sequence: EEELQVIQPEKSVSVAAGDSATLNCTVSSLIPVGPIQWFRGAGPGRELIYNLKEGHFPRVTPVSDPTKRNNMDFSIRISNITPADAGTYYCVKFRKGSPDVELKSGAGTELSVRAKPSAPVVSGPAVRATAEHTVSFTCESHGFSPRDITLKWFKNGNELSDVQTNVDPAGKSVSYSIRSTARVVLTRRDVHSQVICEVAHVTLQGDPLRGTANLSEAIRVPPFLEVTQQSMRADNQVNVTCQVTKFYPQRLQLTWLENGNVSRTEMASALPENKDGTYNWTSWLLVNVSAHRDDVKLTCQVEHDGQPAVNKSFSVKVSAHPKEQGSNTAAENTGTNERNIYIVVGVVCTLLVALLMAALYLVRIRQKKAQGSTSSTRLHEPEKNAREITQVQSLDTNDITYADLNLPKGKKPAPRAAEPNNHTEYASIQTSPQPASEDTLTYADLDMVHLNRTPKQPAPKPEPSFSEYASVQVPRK
Method in brief: as §2

[5] = target: T5, human SIRPγ on stably transfected CHO cells (human, UniProt Q9P1W8 29-387); test: flow cytometry, CHO transfectants, anti-human IgG
T5 construct: also called Human SIRPγ CHO
T5 sequence (Q9P1W8 29-387 limits assumed): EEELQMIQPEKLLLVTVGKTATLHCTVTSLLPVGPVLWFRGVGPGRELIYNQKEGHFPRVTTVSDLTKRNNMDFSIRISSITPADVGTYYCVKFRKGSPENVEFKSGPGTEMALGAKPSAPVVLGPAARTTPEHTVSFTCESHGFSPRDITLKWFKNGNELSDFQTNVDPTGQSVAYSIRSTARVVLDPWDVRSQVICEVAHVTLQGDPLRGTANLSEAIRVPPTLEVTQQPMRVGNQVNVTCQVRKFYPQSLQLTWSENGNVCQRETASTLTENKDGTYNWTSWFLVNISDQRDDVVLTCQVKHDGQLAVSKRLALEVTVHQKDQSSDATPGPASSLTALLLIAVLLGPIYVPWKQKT
Method in brief: as §2

[6] = target: T6, human SIRPβ1 on CHO cells (co-transfected with DAP12) (human, UniProt O00241 30-398); test: flow cytometry, CHO transfectants, anti-human IgG
T6 construct: whole, on cells; co-transfected with DAP12; also called Human SIRPβ1 CHO
T6 sequence (O00241 30-398): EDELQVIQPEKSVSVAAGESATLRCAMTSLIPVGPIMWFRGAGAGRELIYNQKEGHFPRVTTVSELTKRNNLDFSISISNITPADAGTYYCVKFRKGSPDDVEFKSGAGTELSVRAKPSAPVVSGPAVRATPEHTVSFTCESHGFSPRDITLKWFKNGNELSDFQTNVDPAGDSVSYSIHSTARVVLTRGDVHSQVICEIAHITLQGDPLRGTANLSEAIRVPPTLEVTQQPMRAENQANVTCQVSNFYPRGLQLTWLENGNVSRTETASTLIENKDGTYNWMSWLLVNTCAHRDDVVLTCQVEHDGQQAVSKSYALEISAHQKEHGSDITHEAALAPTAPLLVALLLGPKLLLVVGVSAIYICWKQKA
Method in brief: as §2

[7] = target: T7, bivalent human SIRPγ protein with mouse Fc (human, UniProt Q9P1W8 29-360); test: BLI Octet, antibody on AHC, global 1:2 model
T7 construct: also called Human SIRPγ-mFc
T7 sequence (Q9P1W8 29-360 limits assumed): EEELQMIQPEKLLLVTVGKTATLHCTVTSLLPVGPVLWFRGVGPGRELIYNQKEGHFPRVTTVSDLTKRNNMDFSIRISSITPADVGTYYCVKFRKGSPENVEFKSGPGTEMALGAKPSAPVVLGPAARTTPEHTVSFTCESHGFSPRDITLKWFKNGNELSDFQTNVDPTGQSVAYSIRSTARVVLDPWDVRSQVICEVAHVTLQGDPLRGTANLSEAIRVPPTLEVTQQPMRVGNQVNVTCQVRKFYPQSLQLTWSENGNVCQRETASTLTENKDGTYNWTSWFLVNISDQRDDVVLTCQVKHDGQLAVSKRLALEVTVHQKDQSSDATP
Protocol: (§3) Antibodies were coated onto anti-human Fc capture (AHC) biosensors. SIRP-His monomer protein or bivalent SIRP protein with mouse Fc at four concentrations (200 nM, 100 nM, 50 nM, 25 nM) were exposed to the biosensor to measure on-rate kinetics of SIRP antibodies binding to SIRP protein. The biosensors were then exposed to wash buffer to measure off-rate kinetics. The resulting kinetic data were analyzed and fitted using a global 1:2 binding model.

[8] = target: T8, cynomolgus monkey SIRPγ-His monomer protein (cynomolgus monkey, UniProt Q9P1W8 29-359 (human entry), limits assumed); test: BLI Octet, antibody on AHC, global 1:2 model
T8 construct: also called Cyno SIRPγ; Cyno SIRPγ-His
T8 chain: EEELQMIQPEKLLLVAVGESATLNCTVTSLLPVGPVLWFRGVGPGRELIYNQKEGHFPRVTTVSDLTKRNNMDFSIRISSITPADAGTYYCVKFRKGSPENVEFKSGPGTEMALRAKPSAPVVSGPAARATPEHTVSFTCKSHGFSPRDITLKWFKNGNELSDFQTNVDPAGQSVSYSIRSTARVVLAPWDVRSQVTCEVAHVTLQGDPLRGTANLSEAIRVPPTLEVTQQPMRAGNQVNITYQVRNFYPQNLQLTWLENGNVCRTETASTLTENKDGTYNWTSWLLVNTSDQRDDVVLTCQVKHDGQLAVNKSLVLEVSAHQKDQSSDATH
Protocol: as §3

[9] = target: T1, extracellular binding domain of human …; test: competition ELISA, coated SIRPγ ECD, antibody 1 h then 10 µg/mL biotinylated CD47-Fc (blocked ligand), streptavidin-HRP
Protocol: To carry out the competition experiment, the extracellular binding domain of SIRPγ was coated onto a high protein-binding plate and blocked. A titration of each SIRPγ antibody was incubated on the plate for 1 hour. […] Following a wash, streptavidin-HRP was added. The plate was washed again and developed using a chemiluminescent substrate. The plate was read on a plate reader to assess luminescence. […] A known blocker antibody was used as a positive control.

[10] = target: T9, Cynomolgus Monkey SIRPγ (plate-coated extracellular domain); test: ELISA, coated SIRP ECD (2 µg/mL), anti-human IgG, luminescence
T9 construct: also called Cyno SIRPγ
T9 extracellular domain: T8 chain
Method in brief: as §1

[11] = target: T10, human SIRPγ on primary human T-cells (human, UniProt Q9P1W8 29-387); test: flow cytometry, dye-conjugated antibody, human whole blood (3 donors)
T10 construct: endogenous SIRPγ of donor T-cells; also called SIRPγ on T-cells
T10 sequence (Q9P1W8 29-387 limits assumed): as the sequence (Q9P1W8 29-387 limits assumed) above
Protocol: Selected antibodies and an isotype control were tested for binding to human T-cells, B-cells, NK cells, monocytes, and granulocytes. […] Up to 50 μg/mL fluorescent dye-conjugated antibodies or isotype controls were incubated with whole blood from three normal donors. T-cells were identified as the CD14−, CD20−, SSClow, and CD3+ population or further identified to be CD4+ or CD8+ populations. B-cells were identified as the CD14−, SSClow, and CD20+ population. NK cells were identified as CD14−, CD20−, CD3−, and CD56+. Monocytes were identified as the SSClow and CD14+ population. Granulocytes were identified as the CD14−, CD20−, CD3−, SSChigh population. Graphs depict the median fluorescence intensity (MFI) of each population.

[12] = target: T3, cynomolgus monkey SIRPγ on CHO cells; test: flow cytometry, myc-scFv PPE
Method in brief: as §2

[13] = target: T5, human SIRPγ on stably transfected CHO …; test: flow cytometry, myc-scFv PPE
Method in brief: as §2

[14] = target: T11, human SIRPγ-His monomer protein (human, UniProt Q9P1W8 29-360); test: BLI Octet, V5-scFv PPE captured, SIRP-His 500 nM
T11 construct: also called hSIRPγ
T11 sequence (Q9P1W8 29-360 limits assumed): as the sequence (Q9P1W8 29-360 limits assumed) above

[15] = target: human SIRPβ1-His monomer protein (human, UniProt O00241 30-371, limits assumed); test: BLI Octet, V5-scFv PPE captured, SIRP-His 500 nM
human SIRPβ1-His monomer protein, sequence (O00241 30-371 limits assumed): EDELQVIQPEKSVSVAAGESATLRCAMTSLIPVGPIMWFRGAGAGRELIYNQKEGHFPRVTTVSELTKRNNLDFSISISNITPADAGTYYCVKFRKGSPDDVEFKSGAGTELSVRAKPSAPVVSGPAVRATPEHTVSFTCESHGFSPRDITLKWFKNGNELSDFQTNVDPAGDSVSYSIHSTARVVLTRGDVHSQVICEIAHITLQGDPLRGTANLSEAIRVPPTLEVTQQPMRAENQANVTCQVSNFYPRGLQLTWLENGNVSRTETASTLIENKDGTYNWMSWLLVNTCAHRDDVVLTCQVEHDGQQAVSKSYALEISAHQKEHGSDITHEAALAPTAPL

[16] = target: T8, cynomolgus monkey SIRPγ-His monomer …; test: BLI Octet, captured scFv PPE, cyno SIRP
Method in brief: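 Bio-layer interferometry used biotinylated anti-V5 on streptavidin sensors to capture V5-tagged scFv from crude periplasmic extract. Monomeric His-tagged SIRP protein at 500 nM was associated, then dissociated in wash buffer. Off-rate (kdis) was analyzed from the kinetic traces.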

T1 sequence (Q9P1W8 29-360 limits assumed): as the sequence (Q9P1W8 29-360 limits assumed) above

B2: Antibody 4 (antibody, V domains shown)
VH: QVQLVESGGGVVQPGRSLRLSCAASGFTFSNYGMHWVRQAPGKGLEWVAFIWYDGSNKNYADSVKGRFTISRDNPTNTLYLQMNSLRAEDTAVYYCAREEQWLDYWGQGTLVTVSS
VL: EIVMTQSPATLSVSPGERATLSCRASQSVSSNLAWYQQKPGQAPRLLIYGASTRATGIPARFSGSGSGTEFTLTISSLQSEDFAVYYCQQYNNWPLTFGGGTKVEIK
EC50 (read off the curve) [1]: ~0.1 µg/mL | binding result [2]: no binding (tested: about 40 µg/mL)

B3: Antibody 84 (antibody, V domains shown)
VH: QVQLVQSGAEVKKPGASVKVSCKASGYTFTSYYMHWVRQAPGQGLEWMGWINPNSGNAGFAQKFQGRVTMTRDTSTSTVYMELSSLRSEDTAVYYCARGPVYSYGPFDYWGQGTLVTVSS
VL: DIQMTQSPSSLSASVGDRVTITCRASQGISTYLAWYQQKPGKAPKLLIYAASTLQSGVPSRFSGSGSGTDFTLTISSLQPEDFATYYCQQSHSAPITFGQGTKVEIK
EC50 (read off the curve) [3]: ~0.2 µg/mL | binding result [4]: no binding (tested: about 30 µg/mL) | EC50 (read off the curve) [5]: ~0.2 µg/mL | binding result [6]: no binding (tested: about 30 µg/mL) | Kd [7]: 2050 nM | Kd [8]: 34.1 nM | IC50 (read off the curve) [9]: ~0.2 µg/mL

B5: Antibody 6 (antibody, V domains shown)
VH: QVQLVQSGAEVKKPGASVKVSCKASGYTFTGYHIHWVRQAPGQGLEWMGWINPNSGGTNYAQKFQGRVTMTRDTSINTAYMELNRLRSDDTAVFYCARERVGYCSRPSCLDDLNIWGQGTMVTVSS
VL: DIQMTQSPSTLSASVGDRVTITCRASQSISSWLAWYQQKPGKAPKLLIYKASSLETGVPSRFSGSGSGTEFTLTISSLQPDDFATYYCQQYDSYYTFGQGTKLEIK
EC50 (read off the curve) [10]: ~0.1 µg/mL | EC50 (read off the curve) [1]: ~0.02 µg/mL | EC50 (read off the curve) [11]: ~0.1 µg/mL

B6: Antibody 5 (antibody, V domains shown)
VH: B5 VH
VL: B5 VL
EC50 (read off the curve) [10]: ~0.07 µg/mL | EC50 (read off the curve) [1]: ~0.02 µg/mL | EC50 (read off the curve) [11]: ~0.1 µg/mL

B7: Antibody 22 (scFv, V domains shown)
VH: QVQLVQSGAEVKKPGASVKVSCKASGYTFTSHDINWVRQAPGQGLEWMGISNPSGGSTYYAQKFQGRVTMTRDTSTSTVYMELSSLRSEDTAVYYCASSRRYWNGAFDYWGQGTLVTVSS
VL: not shown
notes: scFv in crude PPE, V5/myc-tagged
MFI fold change over parental CHO [12]: 8.24 fold | MFI fold change over parental CHO [13]: 3.17 fold | kdis [14]: < 0.001 s⁻¹ | kdis [15]: < 0.001 s⁻¹ | binding result [16]: binds

More lines, now with the values ahead:

EC50 (read off the curve) [1]: ~0.1 µg/mL | binding result [2]: no binding (tested: about 40 µg/mL)
B1: Antibody 3 (antibody, V domains shown)
VH: B2 VH
VL: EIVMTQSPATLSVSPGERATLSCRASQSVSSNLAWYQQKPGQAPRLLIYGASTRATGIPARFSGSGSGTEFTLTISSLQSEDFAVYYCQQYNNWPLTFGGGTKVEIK

EC50 (read off the curve) [3]: ~0.4 µg/mL | binding result [4]: no binding (tested: about 20 µg/mL) | EC50 (read off the curve) [5]: ~0.1 µg/mL | binding result [10]: binds | IC50 (read off the curve) [9]: ~0.2 µg/mL
B4: Antibody 64 (antibody, V domains shown)
VH: QVQLVQSGAEVKKPGASVKVSCKASGYTFTSYYMHWVRQAPGQGLEWMGRINPNSGGTKYAQKFQGRVTMTRDTSTSTVYMELSSLRSEDTAVYYCARLGSAYFDLWGRGTLVTVSS
VL: DIQMTQSPSSLSASVGDRVTITCRASQSVDTWLAWYQQKPGKAPKLLIYEASTLESGVPSRFSGSGSGTDFTLTISSLQPEDFATYYCQQANSFPITFGQGTRLEIK

EC50 (read off the curve) [3]: ~0.8 µg/mL | binding result [4]: no binding (tested: about 20 µg/mL) | EC50 (read off the curve) [5]: ~0.9 µg/mL | binding result [6]: no binding (tested: about 20 µg/mL) | IC50 (read off the curve) [9]: ~0.1 µg/mL
B8: Antibody 54 (antibody, V domains shown)
VH: QVQLVQSGAEVKKPGASVKVSCKASGYSFSDYYMHWVRQAPGQGLEWMGWMSPNSGNTGYAQKFQGRVTMTRDTSTSTVYMELSSLRSEDTAVYYCARQREEYGHYYYGMDVWGQGTMVTVSS
VL: EIVMTQSPATLSVSPGERATLSCRASQSLGSTYLAWYQQKPGQAPRLLIYGASTRATGIPARFSGSGSGTEFTLTISSLQSEDFAVYYCQQYYSSPPTFGQGTKVEIK
